Data published in patent US9486519B2, “Use of FLT3 ligand for enhancing immune responses in RNA immunization” (BioNTech AG, priority 2008, dated 2016).
Entries after “also recorded” stand apart in the source; their conditions may differ.

Key:
[1] = tested on: antigen-specific CD8+ T lymphocytes; assay: Effects of different Flt3L on the stimulation of naive T cells, MHC multimer measurement in peripheral blood; type: in vivo, C57BL/6 mice; conditions: 0.4 mol i.p. day 0, +3; 20 μg SIINFEKL coding RNA day +7, +10; blood day +15
Description: (§1) These mice were immunized intralymphatically on day +7, +10 with 20 μg […] coding RNA. The control group remained untreated (n=2). On day +15 the frequency of antigen-specific CD8^+ T lymphocytes was measured in peripheral blood by means of MHC multimer measurement.
To this end a product recombinantly expressed in bacteria (Peprotech Flt3L) and a product expressed in human HEK293 cells (Humanzyme Flt3L) was used; cf. Example 7. Human IgG4 served as control.
as §1, with “measured by flow cytometry” for “measured”, “measurement (Beckman Coulter).” for “measurement.”
The mice were administered intraperitoneally Flt3L in equimolar amounts (day 0, +3). In addition, mice were immunized intranodally twice with […] coding RNA (+7, +10). The success of the immunization was quantified by flow cytometry on day +15 by means of tetramer staining.

[2] = tested on: dendritic cells; assay: Dendritic cell subpopulations in spleen and lymph nodes by flow cytometry after i.p. Flt3-L; type: in vivo, C57Bl/6 mice; conditions: 10 μg i.p. d0, d3; day 10
Description: C57Bl/6 mice (n=3) were administered 10 μg Flt3L twice (d0, d3) intraperitoneally. On day 10 the inguinal lymph nodes were removed, the cells were stained with corresponding antibodies and the subpopulations of the dendritic cells were quantified by flow cytometry. The data shown represent the average cell count of the subpopulation *: p<0.05 and **: p<0.001 in the two-sided unpaired t-test.
To test the effects of application of human Flt3 ligand on the efficiency of RNA-based immunizations, the changes in the cellular composition of lymph nodes and spleen were first investigated in the mouse model. For this, various application schemes (2×, 3×, 5×10 μg) of recombinant Flt3-L were applied intraperitoneally and the cellularity was determined 10-12 days after the first injection. […] This increase could be shown for all relevant subpopulations of the dendritic cells in spleen and lymph nodes (FIG. 2).

[3] = tested on: B16 Ova tumors; assay: Therapeutic vaccination against B16 Ova tumors, tumor volume; type: in vivo, C57BL/6 mice
Description: Examination of tumor growth. To this end, four groups (n=10) of C57BL/6 mice were formed. All mice received on day 0 a s.c. injection of B16 Ova tumor cells (2×10^5). Hereof a control group was only treated by IgG4 injection (15 μg; d3, d7, d14, d18). […] The tumor volume was determined after tumor inoculation on a regular basis (d7, d10, d13, d16, d19, d22). The average tumor volume [mm^3] on the days following tumor inoculation [day] is shown.
To this end four groups (n=10) of C57BL/6 mice were formed. All mice received on day 0 a s.c. injection of 2×10^5 B16 Ova tumor cells (Bellone et al., J. Immunol., 2000, 165:2651-2656). Thereof a control group was only treated by injection of IgG4 (15 μg; d3, d7, d14, d18). […] The tumor volume was determined on the following days after tumor inoculation: d7, d10, d13, d16, d19 and d22 (d=day).

B1: Flt3L-IgG4: recombinant human Flt3 ligand prepared as a fusion protein with IgG4, SEQ ID NO: 6, expressed in HEK293 cells (protein)
chain: MTVLAPAWSPTTYLLLLLLLSSGLSGTQDCSFQHSPISSDFAVKIRELSDYLLQDYPVTVASNLQDEELCGGLWRLVLAQRWMERLKTVAGSKMQGLLERVNTEIHFVTKCAFQPPPSCLRFVQTNISRLLQETSEQLVALKPWITRQNFSRCLELQCQPDSSTLPPPWSPRPLEATAPTAPQPPRSPPCPSCPAPEFLGGPSVFLFPPKPKDTLMISRTPEVTCVVVDVSQEDPEVQFNWYVDGVEVHNAKTKPREEQFNSTYRVVSVLTVLHQDWLNGKEYKCKVSNKGLPSSIEKTISKAKGQPREPQVYTLPPSQEEMTKNQVSLTCLVKGFYPSDIAVEWESNGQPENNYKTTPPVLDSDGSFFLYSRLTVDKSRWQEGNVFSCSVMHEALHNHYTQKSLSLSPGK
modifications: Fusionsprotein
With B1 the “adjuvant effect (frequency of antigen-specific CD8+ T lymphocytes)” value [1] was “significant adjuvant effect; also recorded: strongest effect”, the “dendritic cells in spleen and lymph nodes” value [2] was “increase in dendritic cells” and the tumor growth ([3]; Flt3L administration combined with RNA vaccination) was “complete suspension of tumor growth”. The tumor growth ([3]; only Flt3L administered, 15 μg) was “slight delay of tumor growth” and the “effect of the combination with intranodal vaccination of RNA” value ([3]; tumor volume) was “synergistic effect”.
